Starred links: 1 amine or outer side, 2 acyl side, 3 side chain; linkers in the order of their positions; H or OH if unused. Non-standard residues stand in square brackets, D forms with d. Primed or numbered codes have the meaning given here. *: point of attachment. AC4Abu = α-carboxy-4-aminobutyric acid, O=C(C(CCN[*:1])C(=O)[*:3])[*:2]; dBip = N[C@H](Cc1ccc(-c2ccccc2)cc1)C(=O)O; Oic = O=C(O)[C@@H]1C[C@@H]2CCCC[C@@H]2N1; Phe(4-Cl) = N[C@@H](Cc1ccc(Cl)cc1)C(=O)O; Phe(4-I) = N[C@@H](Cc1ccc(I)cc1)C(=O)O; 2Nal = N[C@@H](Cc1ccc2ccccc2c1)C(=O)O; NMehArg = CN[C@@H](CCCCNC(=N)N)C(=O)O; NMeR = CN[C@@H](CCCNC(=N)N)C(=O)O; Tridecanoyl = CCCCCCCCCCCCC(=O)*; hArg = N=C(N)NCCCC[C@H](N)C(=O)O; Cha = N[C@@H](CC1CCCCC1)C(=O)O; NMeL = CN[C@@H](CC(C)C)C(=O)O; αMeL = CC(C)C[C@](C)(N)C(=O)O; αMeP = C[C@@]1(C(=O)O)CCCN1; AC4Abu″ = not defined here; Nle = CCCC[C@H](N)C(=O)O; Pip′ = not defined here; AEEA = NCCOCCOCC(=O)O; Aib = CC(C)(N)C(=O)O
T1: rat APJ receptor (rat, UniProt Q9JHG3 1-377)
T1 sequence (looked up): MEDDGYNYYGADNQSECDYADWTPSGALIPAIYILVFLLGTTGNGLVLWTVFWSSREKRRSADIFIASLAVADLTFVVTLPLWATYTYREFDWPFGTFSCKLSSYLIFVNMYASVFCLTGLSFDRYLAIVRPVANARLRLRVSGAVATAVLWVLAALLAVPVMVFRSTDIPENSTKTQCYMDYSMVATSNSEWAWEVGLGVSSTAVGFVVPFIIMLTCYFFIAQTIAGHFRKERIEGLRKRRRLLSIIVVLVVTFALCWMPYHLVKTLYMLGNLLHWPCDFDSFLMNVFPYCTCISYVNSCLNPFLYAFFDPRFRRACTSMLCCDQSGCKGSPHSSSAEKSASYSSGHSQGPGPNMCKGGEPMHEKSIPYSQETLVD

T2: rat APJ receptor (rat, UniProt Q9JHG3 1-377)
T2 sequence (looked up): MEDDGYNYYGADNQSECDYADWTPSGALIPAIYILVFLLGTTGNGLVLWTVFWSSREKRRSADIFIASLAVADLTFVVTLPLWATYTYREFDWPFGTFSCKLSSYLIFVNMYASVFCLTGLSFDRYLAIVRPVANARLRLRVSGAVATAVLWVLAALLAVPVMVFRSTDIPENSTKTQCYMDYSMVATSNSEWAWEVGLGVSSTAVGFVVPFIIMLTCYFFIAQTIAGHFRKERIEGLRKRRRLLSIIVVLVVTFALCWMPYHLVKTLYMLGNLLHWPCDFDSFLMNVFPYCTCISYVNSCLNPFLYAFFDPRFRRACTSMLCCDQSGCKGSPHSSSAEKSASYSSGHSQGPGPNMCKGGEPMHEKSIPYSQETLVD

B1: SEQ ID NO: 73 (peptide)
peptide: Ac-QR[NMehArg]LSHKGP[Nle]P[Phe(4-Cl)]-OH
SMILES: CCCC[C@H](NC(=O)[C@@H]1CCCN1C(=O)CNC(=O)[C@H](CCCCN)NC(=O)[C@H](Cc1c[nH]cn1)NC(=O)[C@H](CO)NC(=O)[C@H](CC(C)C)NC(=O)[C@H](CCCCNC(=N)N)N(C)C(=O)[C@H](CCCNC(=N)N)NC(=O)[C@H](CCC(N)=O)NC(C)=O)C(=O)N1CCC[C@H]1C(=O)N[C@@H](Cc1ccc(Cl)cc1)C(=O)O
B2: Apelin polypeptide SEQ ID NO: 454 (peptide)
peptide: Tridecanoyl-[AC4Abu″][AEEA][AEEA][dQ][hArg][Aib][dR][Cha]SHKG[Oic][Nle]P[Phe(4-Cl)]-OH
modifications: reading uncertain; also: printed as {TDA}[AC4Abu][Aeea][Aeea]q[hArg][Aib]r[Cha]SHKG[Oic][Nle]P[4-Cl-F]{COOH}
B3: Apelin polypeptide SEQ ID NO: 419 (peptide)
peptide: Tridecanoyl-[AC4Abu][AEEA][AEEA]QRP[NMeR][Cha]SAKG[Oic][Nle]P[Phe(4-Cl)]-OH
SMILES: CCCCCCCCCCCCC(=O)NCCC(C(=O)O)C(=O)NCCOCCOCC(=O)NCCOCCOCC(=O)N[C@@H](CCC(N)=O)C(=O)N[C@@H](CCCNC(=N)N)C(=O)N1CCC[C@H]1C(=O)N(C)[C@@H](CCCNC(=N)N)C(=O)N[C@@H](CC1CCCCC1)C(=O)N[C@@H](CO)C(=O)N[C@@H](C)C(=O)N[C@@H](CCCCN)C(=O)NCC(=O)N1[C@H](C(=O)N[C@@H](CCCC)C(=O)N2CCC[C@H]2C(=O)N[C@@H](Cc2ccc(Cl)cc2)C(=O)O)C[C@@H]2CCCC[C@@H]21
B4: Apelin polypeptide SEQ ID NO: 481 (peptide)
peptide: Tridecanoyl-[AC4Abu″][AEEA][AEEA][dR][dQ][hArg]P[hArg][Cha]SHKG[Oic][Nle]P[Phe(4-Cl)]-OH
modifications: reading uncertain; also: printed as {TDA}[AC4Abu][Aeea][Aeea]rq[hArg]P[hArg][Cha]SHKG[Oic][Nle]P[4-Cl-F]{COOH}
B5: Apelin polypeptide SEQ ID NO: 471 (peptide)
peptide: Tridecanoyl-[AC4Abu″][AEEA][AEEA]QRP[NMehArg]LSHKGP[Nle]P[2Nal]-OH
modifications: reading uncertain; also: printed as {TDA}[AC4Abu][Aeea][Aeea]QRP[NMehArg]LSHKGP[Nle]P[2Nal]{COOH}

Target: T1, rat APJ receptor
Assay: cell-based or functional assay

Going from QRPRLSHKGPXPF ({Acetyl-NH}Q[hArg]P[NMeArg][aMeLeu]SHKGP[Nle]P[4-Cl-F]{COOH}) [SEQ ID NO: 71] to XXXQRPRLSHKGPXPF ({AdpA}[AC4Abu][Aeea][Aeea]QrP[hArg][aMeLeu]SHKGP[Nle]P[4-Cl-F]{COOH}) [SEQ ID NO: 515], the “EC50 Rat APJ Receptor” value rises from 2.75 nM to 5.94 nM (2.2-fold).

XXXQRPRLSHKGPXPF ({AdpA}[AC4Abu][Aeea][Aeea]QRP[NMeArg]LSHKGP[Nle]P[4-Cl-F]{COOH}) [SEQ ID NO: 461] and Ac-[hArg][dR]Q[hArg]E[dR][NMeL]SHKG[Oic][Phe(4-I)]P[dBip]-OH [SEQ ID NO: 78] are within 1.5-fold of each other in “EC50 Rat APJ Receptor” value: 1 nM for the first, 0.871 nM for the second.

Going from B1 to XXXQRPRLSHKGPXPF ({Butanoyl}[AC4Abu][Aeea][Aeea]QRP[NMeArg]LSHKGP[Nle]P[4-Cl-F]{COOH}) [SEQ ID NO: 491], the “EC50 Rat APJ Receptor” value falls from 47.2 nM to 0.453 nM (100-fold).

Going from QRPRLSHKGPXPF ({Acetyl-NH}QrP[hArg][aMeLeu]SHKGP[Nle]P[4-Cl-F]{COOH}) [SEQ ID NO: 70] to QRPRLSHKGPXPF ({Acetyl-NH}QRP[NMeArg]LSHKGP[Nle]P[4-Cl-F]{COOH}) [SEQ ID NO: 68], the “EC50 Rat APJ Receptor” value falls from 9.74 nM to 0.384 nM (25-fold).

Target: T2, rat APJ receptor
Assay: cell-based or functional assay

Going from B2 to XXXQRPRLSHKGPXPF ({TDA}[AC4Abu][Aeea][Aeea]QRP[NMeArg][aMeLeu]SHKGP[Nle]P[4-Cl-F]{COOH}) [Apelin polypeptide SEQ ID NO: 457], the “EC50 Rat APJ Receptor (GTPγS assay)” value falls from 5.35 nM to 0.0564 nM (95-fold).

Going from Tridecanoyl-[AC4Abu″][AEEA][AEEA]QRP[NMeR][Cha]SHKG[Pip′][Nle]P[Phe(4-Cl)]-OH (reading uncertain) [Apelin polypeptide SEQ ID NO: 416] to XXXQRPRLSHKGPXPF ({TDA}[AC4Abu][Aeea][Aeea]QRP[NMeArg][NMeLeu]SHKGP[Nle]P[4-Cl-F]{COOH}) [Apelin polypeptide SEQ ID NO: 459], the “EC50 Rat APJ Receptor (GTPγS assay)” value falls from 0.346 nM to 0.23 nM (1.5-fold).

Compared with XXXQRPRLSHKGPXPF ({TDA}[AC4Abu][Aeea][Aeea]QRP[hArg]LSHKGP[Nle]P[4-Cl-F]{COOH}) [Apelin polypeptide SEQ ID NO: 355], Tridecanoyl-[AC4Abu″][AEEA][AEEA]QRP[NMeR][Cha]SHKG[αMeP][Nle]P[Phe(4-Cl)]-OH (reading uncertain) [Apelin polypeptide SEQ ID NO: 418] is 4.2-fold higher in “EC50 Rat APJ Receptor (GTPγS assay)” value: 0.06 nM for the first, 0.253 nM for the second.

XXXQXPRLSHKGPXPF ({TDA}[AC4Abu][Aeea][Aeea]Q[Cit]P[NMeArg]LSHKGP[Nle]P[4-Cl-F]{COOH}) [Apelin polypeptide SEQ ID NO: 400] and B3 are within 1.5-fold of each other in “EC50 Rat APJ Receptor (GTPγS assay)” value: 0.42 nM for the first, 0.379 nM for the second.

Compared with XXXQRPRLSHKGPXPF ({TDA}[AC4Abu][Aeea][Aeea]QRP[NMeArg]LSHKGP[Nle][BhPro][4-Cl-F]{COOH}) [Apelin polypeptide SEQ ID NO: 426], XXXQRPRLSHKGPXPF ({TDA}[AC4Abu][Aeea][Aeea]QRP[NMeArg][aMeLeu]SHKG[aMePro][Nle]P[4-Cl-F]{COOH}) [Apelin polypeptide SEQ ID NO: 387] is 2.3-fold lower in “EC50 Rat APJ Receptor (GTPγS assay)” value: 0.382 nM for the first, 0.166 nM for the second.

Tridecanoyl-[AC4Abu″][AEEA][AEEA]Q[hArg]P[NMeR][Cha]SHKGP[Nle]P[Phe(4-Cl)]-OH (reading uncertain) [Apelin polypeptide SEQ ID NO: 408] and XXXQRPRLSHKGPXPF ({TDA}[AC4Abu][Aeea][Aeea]Q[hArg]P[hArg]LSHKGP[Nle]P[4-Cl-F]{COOH}) [Apelin polypeptide SEQ ID NO: 357] are within 1.5-fold of each other in “EC50 Rat APJ Receptor (GTPγS assay)” value: 0.184 nM for the first, 0.24 nM for the second.

Going from XXXQRPRLSHKGPXPF ({TDA}[AC4Abu][Aeea][Aeea]QrP[hArg][aMeLeu]SHKGP[Nle]P[4-Cl-F]{COOH}) [Apelin polypeptide SEQ ID NO: 485] to XXXQRPRLSHKGPXPF ({TDA}[AC4Abu][Aeea][Aeea]QRP[NMeArg]LSHKGP[Nle]P[4-Cl-F]{COOH}) [Apelin polypeptide SEQ ID NO: 287], the “EC50 Rat APJ Receptor (GTPγS assay)” value falls from 0.41 nM to 0.242 nM (1.7-fold).

Going from XXXQRPRLSHKGPXPF ({TDA}[AC4Abu][Aeea][Aeea]QRP[NMeArg]LS[rHis]KGP[Nle]P[4-Cl-F]{COOH}) [Apelin polypeptide SEQ ID NO: 469] to XXXQRPRLSHKGPXPF ({TDA}[AC4Abu][Aeea][Aeea]Q[NMehArg]P[NMeArg][aMeLeu]SHKGP[Nle]P[4-Cl-F]{COOH}) [Apelin polypeptide SEQ ID NO: 484], the “EC50 Rat APJ Receptor (GTPγS assay)” value falls from 1.33 nM to 0.767 nM (1.7-fold).

Going from B4 to B5, the “EC50 Rat APJ Receptor (GTPγS assay)” value falls from 0.341 nM to 0.0974 nM (3.5-fold).

XXXQRPRLSHKGPXPF ({TDA}[AC4Abu][Aeea][Aeea]QRP[NMeArg][BLeu]SHKGP[Nle]P[4-Cl-F]{COOH}) [Apelin polypeptide SEQ ID NO: 458] and XXXQRPRLSHKGPXPF ({TDA}[AC4Abu][Aeea][Aeea]QRP[NMeArg]L[aMeS]HKGP[Nle]P[4-Cl-F]{COOH}) [Apelin polypeptide SEQ ID NO: 468] are within 1.5-fold of each other in “EC50 Rat APJ Receptor (GTPγS assay)” value: 0.12 nM for the first, 0.165 nM for the second.

First: Tridecanoyl-[AC4Abu″][AEEA][AEEA][dQ]RP[NMeR][αMeL][BhSer]HKG[Oic][Nle][αMeP][Phe(4-Cl)]-OH (reading uncertain) [Apelin polypeptide SEQ ID NO: 518]
Second: XXXQRPRLSHKGPXPF ({TDA}[AC4Abu][Aeea][Aeea]QrP[NMehArg][aMeLeu]SHKGP[Nle]P[4-Cl-F]{COOH}) [Apelin polypeptide SEQ ID NO: 456]
The “EC50 Rat APJ Receptor (GTPγS assay)” value of the first is 2.5-fold higher: 0.444 nM for the first, 0.178 nM for the second.

In the case of XXXQRPRLSHKGPXPF ({TDA}[AC4Abu][Aeea][Aeea]Q[hArg]P[NMehArg]LSHKGP[Nle]P[4-Cl-F]{COOH}) [Apelin polypeptide SEQ ID NO: 483], the “EC50 Rat APJ Receptor (GTPγS assay)” value is reported as 0.229 nM.
